Molecular target: 重组人CALR融合蛋白 (recombinant human calreticulin fusion protein, residues 18-203, Example 1) (human, UniProt P27797 18-203)
Experiment: SPR, Biacore 3000, curve fitting

重组人CALR融合蛋白 (recombinant human calreticulin fusion protein, residues 18-203, Example 1), sequence (P27797 18-203): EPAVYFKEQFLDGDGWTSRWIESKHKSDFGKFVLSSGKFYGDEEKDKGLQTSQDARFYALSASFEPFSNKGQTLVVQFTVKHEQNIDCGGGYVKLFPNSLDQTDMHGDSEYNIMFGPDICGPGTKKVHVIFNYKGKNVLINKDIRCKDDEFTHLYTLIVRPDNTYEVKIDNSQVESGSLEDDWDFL

| Binder | Kd [nM] |
| --- | --- |
| 兔单克隆抗体2G2 (rabbit monoclonal antibody 2G2 against human calreticulin) (antibody, V domains shown, Recombinant rabbit IgG made in 293F cells; also called 2G2抗体; 兔抗人CALR单克隆抗体2G2) VH: QEQLEESGGGLVQPEGSLTLTCTASGFSINNNYWICWVRQAPGKGLEWVGCISIADNSNTYYATWAKGRVTISKTSSTTVTLQMTSLTAADTATYFCARGPAVISFNLWGPGTLVTVSS VL: AQVLTQTPSSTSAAVGGTVTINCQASESVYGNNRLAWYQQKPGQPPKRLIYDASTLASGVPSRFSGSGSGKQFTLTMSGVQCDDAATYYCIGHFYSGINSISFGGGTEVVVKG | 4.88 |
| 兔单克隆抗体3B3 (rabbit monoclonal antibody 3B3 against human calreticulin) (antibody, V domains shown, Recombinant rabbit IgG made in 293F cells; also called 3B3抗体; 兔抗人CALR单克隆抗体3B3) VH: QSLEESGGGLVQPEGSLTLTCTASGFSFSSSYWICWVRQAPGKGLEWIGCISIDDNSNTYYASWAKGRVTISKTSSTTVTLQMTSLTAADTATYFCARGPGIIFYNLWGPGTLVTVSS VL: AQVLTQTPSSTSAAVGGTVTINCQASESVYNNNRLAWYQQKPGQPPKRLIYDASKLASGVPSRFKGSGSGKQFTLTMSGVQCDDAATYYCIGHFYTSINSVTFGGGTEVVVKG | 4.34 |
